According to PMC9348671, “Structural elucidation of substrate-bound aminoglycoside acetyltransferase (3)-IIIa” (PLoS ONE, 2022):

Biological target: the molecule itself
Experiment: SEC; HiLoad Superdex 200 26/60 in 20 mM Tris pH 7.5, 150 mM NaCl; tag removed

B1: aminoglycoside acetyltransferase (3)-IIIa (enzyme)
chain: MTDLNIPHTHAHLVDAFQALGIRAGQALMLHASVKAVGAVMGGPNVILQALMDALTPDGTLMMYAGWQDIPDFIDSLPDALKAVYLEQHPPFDPATARAVRENSVLAEFLRTWPCVHRSANPEASMVAVGRQAALLTANHALDYGYGVESPLAKLVAIEGYVLMLGAPLDTITLLHHAEYLAKMRHKNVVRYPCPILRDGRKVWVTVEDYDTGDPHDDYSFEQIARDYVAQGGGTRGKVGDADAYLFAAQDLTRFAVQWLESRFGDSASYG
notes: AAC(3)-IIIa from Pseudomonas aeruginosa, GenBank CAA39184.1; gene synthesized with codons optimized for E. coli, in pET15b between NdeI and BamHI; Hexahistidine tag removed by thrombin; residues of the thrombin site and vector may be left at the N-terminus; Crystals held CoASH and an aminoglycoside (gentamicin, sisomicin or neomycin); also called AAC(3)-IIIa; iso^A; source: LOBSTR E. coli, …
stoichiometry N: 2
